Measurements taken from patent publication US20230340064A1 (published 2023).

Tests used:
[1] = target: HLA-A1-restricted MAGE-A3EVD-MHC-multimer (MAGE-A3, …; immuneAware) (human); assay: flow cytometry, MHC-multimer staining of TCR-transduced CD8+ T cells
[2] = target: T1, MAGE-A3 peptide on HLA-A*01:01 (human); assay: multimer staining
T1 peptide: EVDPIGHLY
Text: CD8 T cells were isolated from PBMCs of a healthy donor and transduced with three different MAGE-A3-reactive TCRs. Transduced CD8⁺ T cells were enriched by FACS using the constant beta 1 region as a marker for transduction. After expansion of these cells, they were stained either with a MAGE-A3EVD-MHC-multimer (right panel) or antibodies against CD8 and Cß1 (left panel) and analyzed by flow cytometry. Populations were gated on single live cells.
Sequences of TCR-α and TCR-β chains of MAGE-A3-reactive T-cell clones were identified by Next Generation Sequencing and after exchanging the constant TCR regions by their minimal-murinized counterparts cloned into the retroviral vector pES.12-6. For the β chain the Cß1 sequence was used. PBMCs of three healthy donors were isolated by ficoll gradient centrifugation. CD8-positive Cß1-negative T-cells were enriched by negative magnetic selection (Miltenyi) and stimulated in non-tissue culture 24-well plates with plate bound antibodies specific for CD3 and CD28. Amphotropic retroviral particles were produced by transfection of HEK293T cells with the respective TCR encoding retroviral plasmid and two expression plasmids. Three days after stimulation, CD8-positive Cß1-negative T cells were transduced and on day ten enriched for transduced CD8⁺ cells by MACS-separation using the Cβ1 constant beta region as a marker for transduction and then expanded by REP. Transgenic T cells were stained either with an HLA-A1-restricted MAGE-A3EVD-MHC-multimer (MAGE-A3, […]; immuneAware) or antibodies against CD8 and the constant β1 region.

[3] = target: T2, titin peptide on HLA-A*01:01 (human); assay: cytokine release
T2 peptide: ESDPIVAQY

B1: TCR_2 (MAGE-A3-reactive TCR, transgenically expressed on CD8+ T cells) (TCR, V domains shown)
V domain 1: KQEVTQIPAALSVPEGENLVLNCSFTDSAIYNLQWFRQDPGKGLTSLLLIQSSQREQTSGRLNASLDKSSGRSTLYIAASQPGDSATYLCAVRWETSGSRLTFGEGTQLTVNP
V domain 2: DSGVTQTPKHLITATGQRVTLRCSPRSGDLSVYWYQQSLDQGLQFLIQYYNGEERAKGNILERFSAQQFPDLHSELNLSSLELGDSALYFCASSVGGGYEQYFGPGTRLTVTE
- percent of T cells binding the MAGE-A3EVD-MHC-multimer [1]: 20%

B2: TCR2 (TCR, V domains shown)
Valpha: KQEVTQIPAALSVPEGENLVLNCSFTDSAIYNLQWFRQDPGKGLTSLLLIQSSQREQTSGRLNASLDKSSGRSTLYIAASQPGDSATYLCAVRWETSGSRLTFGEGTQLTVNP
Vbeta: DSGVTQTPKHLITATGQRVTLRCSPRSGDLSVYWYQQSLDQGLQFLIQYYNGEERAKGNILERFSAQQFPDLHSELNLSSLELGDSALYFCASSVGGGYEQYFGPGTRLTVT
- binding result [2]: recognises
- binding result [3]: no recognition

B3: TCR1 (TCR, V domains shown)
Valpha: KQEVTQIPAALSVPEGENLVLNCSFTDSAIYNLQWFRQDPGKGLTSLLLIQSSQREQTSGRLNASLDKSSGRSTLYIAASQPGDSATYLCAVIEYGNKLVFGAGTILRVKS
Vbeta: DAMVIQNPRYQVTQFGKPVTLSCSQTLNHNVMYWYQQKSSQAPKLLFHYYDKDFNNEADTPDNFQSRRPNTSFCFLDIRSPGLGDAAMYLCATSWDRGYEQFFGPGTRLTVL
- binding result [2]: recognises
- binding result [3]: no recognition

B4: TCR3 (TCR, V domains shown)
Valpha: AQKVTQAQTEISVVEKEDVTLDCVYETRDTTYYLFWYKQPPSGELVFLIRRNSFDEQNEISGRYSWNFQKSTSSFNFTITASQVVDSAVYFCALSEALGYSSASKIIFGSGTRLSIRP
Vbeta: GAGVSQSPSNKVTEKGKDVELRCDPISGHTALYWYRQSLGQGLEFLIYFQGNSAPDKSGLPSDRFSAERTGGSVSTLTIQRTQQEDSAVYLCASSDPMSGAQETQYFGPGTRLLVL
- binding result [2]: recognises
- binding result [3]: no recognition
